Reference: the supplement of paper PMC10567573

B1: OAS1 (parent)
chain: LQLGEGVEFDVLPAFDALGQLTGG
B2: SLC19A2 (parent)
chain: FHHIPSTCQRVNGIKVQNGGIVTD

Variants of: B1
Test: protein stability index of a GFP-peptide fusion (GPS, HEK-293T) (PSI 1-6); higher = more stable
Conditions: c terminus: a fixed tail appended
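Note: lentivirally expressed fusions sorted by FACS into six bins by GFP to DsRed ratio, PSI derived from sequencing read proportions per bin multiplied by bin number.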

Variant | protein stability index
L1S | 3.65
L1N | 4.18
L1A | 3.26
L1D | 4.96
L1C | 2.95
L1R | 4.01
L1K | 3.67
L1G | 4.46
L1Y | 2.31
L1E | 4.58
L1H | 4.33
L1T | 3.33
L1M | 2.57
L1I | 1.04
L1F | 2.06
L1V | 2.71
Q2G | 1.74
Q2A | 3.5
Q2D | 2.84
Q2M | 3.19
Q2I | 2.81
Q2P | 3.18
Q2C | 1.04
Q2N | 2.41

Variant | protein stability index
Q2T | 1.61
Q2E | 3.58
E5C | 1.25
E5G | 2.63
E5N | 2.09
E5M | 1.15
E5H | 1.68
E5A | 1.99
E5K | 2.09
E5L | 1.02
E5D | 2.24
L3R | 3.24
L3P | 4.01
L3Y | 3.37
L3K | 3.97
L3S | 3.02
L3E | 4.56
L3F | 2.08
L3A | 3.65
L3D | 2.98
L3V | 2.34
L3Q | 3.6
L3G | 2.93
L3I | 2.26

Variant | protein stability index
L3W | 2.49
L3M | 2.34
L3C | 2.57
L3H | 4.17
L3T | 3.61
L3N | 1.72
G4E | 3.05
G4Y | 1.08
G4S | 1.4
G4P | 2.36
G4I | 1.88
G4W | 1.65
G4F | 1.17
G4V | 1.7
G4T | 2.28
G4M | 2.36
G4C | 1.38
G4R | 1.78
G4N | 2.16
G4H | 2.25
G4Q | 2.75
G4K | 2.8

Variants of: B2
Test: as above
Conditions: c terminus: a fixed tail appended

Variant | protein stability index
N18D | 1.81
N18Y | 1.63
N18C | 1.52
N18Q | 1.48
N18K | 1.68
N18M | 1.98
N18S | 1.92
N18F | 2.04
N18L | 1.28
N18E | 2.01
N18R | 2.14
N18P | 2.08
N18I | 2.94
N18G | 3.96
N18T | 1.65
N18A | 1.77
V11G | 2.19
V11D | 2.42
V11P | 2.54
V11K | 2.11
V11T | 2.04
V11I | 2.43
V11F | 1.81
V11M | 2.26

Variant | protein stability index
V11L | 1.59
V11R | 3.19
V11S | 1.93
V11C | 1.49
V11N | 2.49
V11Q | 2.48
V11Y | 2.09
V11A | 2.25
V11W | 1.44
V11H | 1.83
V11E | 2.08
I21L | 1.61
I21Q | 2.16
I21H | 2.09
I21C | 1.79
I21Y | 2.18
I21N | 3.07
I21A | 2.46
I21P | 1.6
I21D | 2.24
I21M | 2.03
I21G | 2.2
I21T | 2.19
I21K | 3.06

Variant | protein stability index
I21E | 2.15
I21S | 1.85
I21R | 2.43
I21F | 1.83
R10V | 2.46
R10M | 1.67
R10K | 1.91
R10Q | 1.87
R10I | 1.98
R10S | 1.89
R10P | 1.78
R10T | 1.99
R10W | 2.97
R10N | 1.6
R10Y | 2.07
R10L | 2.46
K15T | 2.19
K15F | 2.49
K15P | 2.33
K15M | 1.64
K15N | 2.05
K15E | 2.22
K15G | 2.38
K15C | 2.2

Variant | protein stability index
K15Y | 2.47
K15Q | 2.47
K15L | 2.15
K15S | 2.24
K15I | 2.14
K15V | 2.14
K15H | 2.37
K15A | 1.91
K15R | 2.2
K15D | 2.57
I14R | 2.18
I14F | 2.32
I14K | 2.19
I14G | 2.6
I14V | 1.69
I14C | 1.72
I14Y | 1.47
I14L | 2
I14P | 2.19
I14N | 2.07
I14W | 2.7
I14D | 1.88
I14T | 2.17
I14E | 2.69

Variant | protein stability index
I14Q | 2.14
I14M | 2.23
I14H | 2.31
I14A | 2.2
I14S | 2.62
Q17L | 1.34
Q17N | 2.17
Q17T | 1.67
Q17I | 1.6
Q17R | 2.81
Q17K | 2.66
Q17G | 1.87
Q17H | 2.08
Q17D | 2.05
Q17F | 1.41
Q17W | 1.62
Q17A | 1.89
Q17P | 2.35
Q17C | 2.37
Q17Y | 2.31
Q17E | 2.28
Q17S | 2.72
Q17M | 1.09
Q17V | 2.1

Variant | protein stability index
V22G | 1.56
V22M | 1.52
V22A | 2.44
V22Y | 1.47
V22F | 3.33
V22P | 2.62
V22K | 1.77
V22R | 2.19
V22Q | 2.18
V22D | 2.42
V22I | 1.73
V22N | 2.23
V22W | 1.91
V22L | 2.2
V22E | 1.84
V22H | 2.01
V22T | 2.52
V22S | 2.23
V22C | 1.61
T23D | 2.53
T23Q | 2.44
T23G | 1.67
T23H | 3.31
T23W | 1.45

Variant | protein stability index
T23E | 1.85
T23C | 2.27
T23P | 1.89
T23R | 4.73
T23I | 1.57
T23F | 1.81
T23K | 2.11
T23N | 1.86
T23M | 2.15
T23A | 2.4
T23Y | 1.75
T23L | 1.95
T23S | 2.18
T23V | 1.67
G20L | 1.64
G20N | 2.29
G20M | 2.18
G20S | 2.34
G20K | 1.87
G20R | 1.73
G20V | 1.5
G20Q | 1.8
G20E | 1.95
G20T | 1.76

Variant | protein stability index
G20F | 1.65
G20I | 1.9
G20H | 2.19
G20C | 1.8
G20P | 2.2
G20D | 2.2
G20A | 1.59
N12C | 1.84
N12A | 1.84
N12S | 2.36
N12D | 2.86
N12E | 2.04
N12V | 1.82
N12L | 2.1
N12P | 2.05
N12T | 1.78
N12Q | 2.43
N12W | 1.01
N12R | 2.47
N12I | 1.42
N12F | 1.74
N12H | 1.89
N12G | 2.07
N12Y | 1.78

Variant | protein stability index
N12K | 2.22
G13H | 1.64
G13F | 1.71
G13C | 1.89
G13E | 2.13
G13S | 1.97
G13I | 1.75
G13N | 2.01
G13R | 2.21
G13L | 1.58
G13M | 2.08
G13K | 2.5
G13P | 1.85
G13T | 2.28
G13D | 2
G13Y | 2.19
G13A | 1.77
G13Q | 2.73
G13V | 1.73
D24N | 2.47
D24K | 2.64
D24R | 1.89
D24Q | 1.94
D24I | 2.06

Variant | protein stability index
D24S | 2.12
D24M | 2.38
D24E | 2.06
D24P | 1.72
D24T | 1.7
D24C | 1.5
D24A | 2.16
D24H | 2.11
D24Y | 3.21
D24G | 1.16
G19R | 1.65
G19W | 1.62
G19C | 2.34
G19N | 2.37
G19K | 1.94
G19A | 1.65
G19L | 1.72
G19Y | 1.74
G19F | 2.25
G19I | 3.46
G19H | 1.59
G19T | 2.78
G19M | 1.27
G19Q | 2.16

Variant | protein stability index
G19S | 1.51
G19E | 2.81
G19D | 2.36
G19P | 2.04
G19V | 2.32
V16K | 2.02
V16T | 1.89
V16D | 2.31
V16E | 1.49
V16A | 2.13
V16W | 2.14
V16G | 2.13
V16H | 2.15
V16Q | 1.56
V16R | 1.93
V16S | 2.26
V16Y | 1.95
V16N | 1.96
V16F | 1.6
V16L | 1.79
V16C | 2.2
V16M | 2.44
V16I | 1.51
V16P | 2.14
